The record followed here is US20250180556A1 (ECOLE POLYTECHNIQUE FEDERALE DE LAUSANNE EPFL, published 2025).

The target in assay [1] is T1, glutathione S-transferase (GST)-HmtA chimeric construct, biotinylated in vivo (Methanobrevibacter smithii, biotinylated in vivo by bacteria at the N-terminus (GST) end).
T1 construct: The construct was immobilised on coated polystyrene plates; also called GCJ construct; HmtA containing construct; not shown: glutathione S-transferase (GST)
Description: ELISA, biotinylated GST-HmtA immobilised on coated plates. How it is done: (§1) The binding properties of all antibodies were tested by ELISA. A glutathione S-transferase (GST)-HmtA chimeric construct was prepared and further biotinylated in vivo by bacteria at the N-terminus (GST) end of the HmtA construct (GCJ construct). The construct was immobilized in coated polystyrene plates. A control chimeric GST construct (GCH) lacking HmtA was prepared, biotinylated and immobilized analogously.

Assay [2] deals with T1, glutathione S-transferase (GST)-HmtA …. Description: ELISA (figure legend). How it is done: as §1
In general terms: ELISA stands for enzyme-linked immunosorbent assay.

T1 sequence (chain, as listed by the source mutant): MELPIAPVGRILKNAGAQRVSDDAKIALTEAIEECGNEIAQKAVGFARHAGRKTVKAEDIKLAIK

B1: scFv of monoclonal antibody mAb1 (N-VH-linker-VL-C) (scFv)
scFv: EVQLVQSGAEVKKPGESLKISCKGSGYSFTSYWIGWVRQMPGKGLEWMGIIYPGDSDTRYSPSFQGQVTISADKSISTAYLQWSSLKASDTAMYYCARAGFRGYCSGGSCYRLPYWGQGTLVTVSSGGGGSGGGGSGGGGSTQSVLTQPPSVSAAPGQKVTISCSGSSSNIGNNYVSWYQQLPGTAPKLLIYDNNKRPSGIPDRFSGSKSGTSATLGITGLQTGDEADYYCGTWDVLAARSVFGGGTKLTVLG
notes: Selected from the Tomlinson I,J human scFv library (pIT2 vector); also called scFv based on mAb1
As for B1, the binding result in assay [1] is on record as “binds”.

B2: scFv of monoclonal antibody mAb5 (N-VH-linker-VL-C) (scFv)
scFv: EVQLVQSGAEVKKPGESLKISCKGSGYSFTSYWIGWVRQMPGKGLEWMGIIYPGDSDTRYSPSFQGQVTISADKSISTAYLQWSSLKASDTAMYYCARAKVGQRYSSGRYFFDYWGQGTLVTVSSGGGGSGGGGSGGGGSTEIVLTQSPATLSLSPGERATLSCRASQSVSSYLAWYQQKPGQAPRLLIYDASNRATGIPARFSGSGSGTDFTLTISSLEPEDFAVYYCQQGAKDNPMTFGQGTKVEIKR
notes: Selected from the Tomlinson I,J human scFv library (pIT2 vector); also called scFv based on mAb5
On to B2, for which, in assay [2], the binding result was “binds”.

B3: scFv of monoclonal antibody mAb2 (N-VH-linker-VL-C) (scFv)
scFv: EVQLVQSGAEVKKPGESLKISCKGSGYSFTSYWIGWVRQMPGKGLEWMGIIYPGDSDTRYSPSFQGQVTISADKSISTAYLQWSSLKASDTAMYYCARLATGPHGIASAGRRYLDYWGQGTLVTVSSGGGGSGGGGSGGGGSTQSVLTQPPSVSAAPGQKVTISCSGSSSNIGNNYVSWYQQLPGTAPKLLIYDNNKRPSGIPDRFSGSKSGTSATLGITGLQTGDEADYYCGTWDSRGFGVFGGGTKLTVLG
notes: Selected from the Tomlinson I,J human scFv library (pIT2 vector); also called scFv based on mAb2
Consider B3, for which the binding result in assay [1] was “binds”.
